B1: Peptide A34 (peptide)
peptide: AAGSHPSRWAGMGRRLLLRSA
notes: alanine-scan variant of the domain I 21-mer
B2: Peptide A44 (peptide)
peptide: AAGSHPSRWAAMGRRLLLRSV
notes: as for B1
B3: Peptide A39 (peptide)
peptide: AAGSHPSRWAGMGRRALLRSV
notes: as for B1
B4: Peptide A35 (peptide)
peptide: AAGSHPSRWAGMGRRLLLRAV
notes: as for B1
B5: Peptide A36 (peptide)
peptide: AAGSHPSRWAGMGRRLLLASV
notes: as for B1
B6: Peptide A37 (peptide)
peptide: AAGSHPSRWAGMGRRLLARSV
notes: as for B1
B7: Peptide A45 (peptide)
peptide: AAGSHPSRAAGMGRRLLLRSV
notes: as for B1
B8: Peptide A47 (peptide)
peptide: AAGSHPARWAGMGRRLLLRSV
notes: as for B1
B9: Peptide A46 (peptide)
peptide: AAGSHPSAWAGMGRRLLLRSV
notes: as for B1
B10: Peptide A41 (peptide)
peptide: AAGSHPSRWAGMGARLLLRSV
notes: as for B1
B11: Peptide A43 (peptide)
peptide: AAGSHPSRWAGAGRRLLLRSV
notes: as for B1
B12: Peptide A38 (peptide)
peptide: AAGSHPSRWAGMGRRLALRSV
notes: as for B1
B13: Peptide A40 (peptide)
peptide: AAGSHPSRWAGMGRALLLRSV
notes: as for B1
B14: Peptide A42 (peptide)
peptide: AAGSHPSRWAGMARRLLLRSV
notes: as for B1

Each binder was assayed against T1, recombinant human IL-6 (human, UniProt P05231 30-212, labeled with radioactive iodine) (assay: radioiodinated IL-6 on peptide array).
T1 construct: Labeled probe in solution, added to wells that carry the synthetic peptides; also called IL-6 ligand; Interleukin-6
Method: Synthetic peptide arrays were constructed in 96-well microtiter plates in accordance with the method set forth in WO 91/02714 (Saxinger), and used to test the binding of recombinant human IL-6 that had been labeled with radioactive iodine (radiolabeling by standard methods). After incubating the radiolabeled IL-6 ligand in a well with each synthetic peptide, a washing step was performed to remove unbound label, and the relative level of radioactivity remaining in each well of the plate was evaluated to determine the relative affinity of each peptide for IL-6 ligand.

Binder	Counts/minute bound
PRSTPSLTTKAVLLVRK [Peptide B5]	3960 counts/minute
PRSTPSLTTKAVLLV [Peptide B7]	3400 counts/minute
GSHPSRWAGMGRRLLLRSV [Peptide A19]	11000 counts/minute
STPSLTTKAVLLVRKFQNS [Peptide B19]	12200 counts/minute
TPSLTTKAVLLVRKFQNS [Peptide B20]	12900 counts/minute
LLLRSV (also called LLLRSV) [Peptide A32]	1600 counts/minute
TTKAVLLVRKFQNS [Peptide B24]	7010 counts/minute
PSLTTKAVLLVRKFQNS [Peptide B21]	13300 counts/minute
PRSTPSLTT [Peptide B13]	1050 counts/minute
GMGRRLLLRSV [Peptide A27]	6820 counts/minute
PRSTPS (also called PRSTPS) [Peptide B16]	1020 counts/minute
PRSTPSLTTK [Peptide B12]	1310 counts/minute
AVLLVRKFQNS [Peptide B28]	9070 counts/minute
RLLLRSV (also called RLLLRSV) [Peptide A31]	5460 counts/minute
PRSTPSLTTKAVLLVRKF [Peptide B4]	4690 counts/minute
PRSTPSLTTKAV [Peptide B10]	1220 counts/minute
AAGSHPSRWA [Peptide A12]	1330 counts/minute
RSTPSLTTKAVLLVRKFQNS [Peptide B18]	13000 counts/minute
LVRKFQNS [Peptide B31]	2520 counts/minute
MGRRLLLRSV [Peptide A28]	7140 counts/minute

Binder	Counts/minute bound
LTTKAVLLVRKFQNS [Peptide B23]	12200 counts/minute
PRSTPSLTTKA [Peptide B11]	1240 counts/minute
PRSTPSL (also called PRSTPSL) [Peptide B15]	985 counts/minute
B1	11800 counts/minute
B2	11900 counts/minute
B3	5280 counts/minute
B4	11200 counts/minute
B5	4900 counts/minute
B6	7730 counts/minute
B7	8040 counts/minute
B8	11300 counts/minute
B9	9520 counts/minute
B10	4460 counts/minute
B11	13500 counts/minute
B12	7080 counts/minute
B13	4250 counts/minute
B14	12300 counts/minute
LLVRKFQNS [Peptide B30]	7200 counts/minute
AAGSHPSR [Peptide A14]	1350 counts/minute
KAVLLVRKFQNS [Peptide B27]	5600 counts/minute

Binder	Counts/minute bound
PRSTPSLTTKAVLLVRKFQN [Peptide B2]	7930 counts/minute
SHPSRWAGMGRRLLLRSV [Peptide A20]	12000 counts/minute
AAGSHPS (also called AAGSHPS) [Peptide A15]	1320 counts/minute
WAGMGRRLLLRSV [Peptide A25]	12200 counts/minute
VRKFQNS (also called VRKFQNS) [Peptide B32]	1180 counts/minute
AGMGRRLLLRSV [Peptide A26]	7620 counts/minute
AGSHPSRWAGMGRRLLLRSV [Peptide A18]	13400 counts/minute
AAGSHPSRW [Peptide A13]	1520 counts/minute
AAGSHP (also called AAGSHP) [Peptide A16]	1570 counts/minute
HPSRWAGMGRRLLLRSV [Peptide A21]	12000 counts/minute
PRSTPSLT [Peptide B14]	930 counts/minute
PSRWAGMGRRLLLRSV [Peptide A22]	11100 counts/minute
RRLLLRSV [Peptide A30]	5970 counts/minute
VLLVRKFQNS [Peptide B29]	9100 counts/minute
GRRLLLRSV [Peptide A29]	5370 counts/minute
PRSTPSLTTKAVLLVR [Peptide B6]	4360 counts/minute
SRWAGMGRRLLLRSV [Peptide A23]	8270 counts/minute
PRSTPSLTTKAVLLVRKFQ [Peptide B3]	7080 counts/minute
RWAGMGRRLLLRSV [Peptide A24]	12100 counts/minute
PRSTPSLTTKAVL [Peptide B9]	1400 counts/minute

Biological target: T1, recombinant human IL-6
Assay: radioiodinated IL-6 on peptide array
Remark: another data set of the same source

Binder	Counts/minute bound
TGELLDPCGYISPESPVVQLHSNF [Peptide E3]	1300 counts/minute
ALFIFLTTESTGELLDPCGYISPE [Peptide E2]	1530 counts/minute
HSNFTAVCVLKEKCMDYFHVNANY [Peptide E5]	1290 counts/minute
MLTLQTWVVQALFIFLTTESTGEL [Peptide E1]	3360 counts/minute
NANYIVWKTNHFTIPKEQYTIINR [Peptide E7]	1330 counts/minute
ISPESPVVQLHSNFTAVCVLKEKC [Peptide E4]	1500 counts/minute
KEKCMDYFHVNANYIVWKTNHFTI [Peptide E6]	1440 counts/minute

Reference: patent publication US20040092720A1 (US Dept. of Health and Human Services, published 2004)
